Test results taken from publication PMC12208167.

Assays:
[1] = molecular target: human neonatal Fc receptor (FcRn) (human) (UniProt P55899); assay: ELISA
[2] = molecular target: murine neonatal Fc receptor (FcRn) (mouse | not stated) (UniProt Q61559); assay: ELISA
[3] = molecular target: human neonatal Fc receptor (FcRn) (human) (UniProt P55899); assay: SPR
[4] = molecular target: murine neonatal Fc receptor (FcRn) (mouse | not stated) (UniProt Q61559); assay: SPR

UniProt Q61559, sequence (Q61559 22-365, chain 1 of 2): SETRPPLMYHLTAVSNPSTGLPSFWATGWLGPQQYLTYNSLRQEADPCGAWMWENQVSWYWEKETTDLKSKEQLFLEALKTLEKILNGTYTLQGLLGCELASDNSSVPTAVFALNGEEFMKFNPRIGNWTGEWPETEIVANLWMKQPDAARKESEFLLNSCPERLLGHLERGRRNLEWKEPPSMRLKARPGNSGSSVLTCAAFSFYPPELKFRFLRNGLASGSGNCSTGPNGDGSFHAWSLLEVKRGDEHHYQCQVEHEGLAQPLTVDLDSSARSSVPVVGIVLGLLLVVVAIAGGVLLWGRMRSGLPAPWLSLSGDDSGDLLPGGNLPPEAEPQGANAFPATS
UniProt Q61559, sequence (P01887 21-119, chain 2 of 2, further chain): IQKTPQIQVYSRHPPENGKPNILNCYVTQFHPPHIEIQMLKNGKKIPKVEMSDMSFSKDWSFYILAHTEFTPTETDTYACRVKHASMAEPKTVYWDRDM
UniProt P55899, sequence (P55899 27-297, chain 1 of 2): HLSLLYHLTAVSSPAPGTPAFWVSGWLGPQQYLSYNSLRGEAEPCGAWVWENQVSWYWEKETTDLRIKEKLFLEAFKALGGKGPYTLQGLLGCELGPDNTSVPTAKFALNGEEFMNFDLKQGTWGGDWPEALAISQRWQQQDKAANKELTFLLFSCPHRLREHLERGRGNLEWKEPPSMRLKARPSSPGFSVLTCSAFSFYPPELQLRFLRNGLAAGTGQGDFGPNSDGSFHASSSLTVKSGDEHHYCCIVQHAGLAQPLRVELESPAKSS
UniProt P55899, sequence (P61769 21-119, chain 2 of 2, further chain): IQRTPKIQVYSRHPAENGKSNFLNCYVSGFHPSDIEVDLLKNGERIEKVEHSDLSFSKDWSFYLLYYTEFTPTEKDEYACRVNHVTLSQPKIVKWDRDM

B domain-deleted (BDD) FVIII (ReFacto AF) (natural protein)
EC50 [1]: 1140 nM | EC50 [2]: 130 nM

m66.6, human anti-MPER HIV monoclonal IgG1 (antibody)
Kd [3]: 1.3 to 2.8 nM | Kd [4]: 0.2 to 0.4 nM
